The text below walks through data of patent publication US11814447B2, “Peptide ligands for binding to EphA2” (BICYCLERD LIMITED, priority 2018, dated 2023).

Test [1] addresses T1, Human EphA2 (Ecto) (Human, UniProt P29317 24-537).
T1 construct: extracellular domain
In words: FP competition, tracer Compound 18. The protocol: (§1) Peptides without a fluorescent tag were tested in competition with a peptide with a fluorescent tag and a known Kd (Table 2). Peptides were diluted to an appropriate concentration in assay buffer as described in the direct binding assay with a maximum of 5% DMSO, then serially diluted 1 in 2. […] Measurements were conducted as for the direct binding assay, however the gain was determined prior to the first measurement. Data analysis was in Systat Sigmaplot version 12.0 where the mP values were fit to a user defined cubic equation to generate a Ki value: […]
T1 sequence (P29317 24-537): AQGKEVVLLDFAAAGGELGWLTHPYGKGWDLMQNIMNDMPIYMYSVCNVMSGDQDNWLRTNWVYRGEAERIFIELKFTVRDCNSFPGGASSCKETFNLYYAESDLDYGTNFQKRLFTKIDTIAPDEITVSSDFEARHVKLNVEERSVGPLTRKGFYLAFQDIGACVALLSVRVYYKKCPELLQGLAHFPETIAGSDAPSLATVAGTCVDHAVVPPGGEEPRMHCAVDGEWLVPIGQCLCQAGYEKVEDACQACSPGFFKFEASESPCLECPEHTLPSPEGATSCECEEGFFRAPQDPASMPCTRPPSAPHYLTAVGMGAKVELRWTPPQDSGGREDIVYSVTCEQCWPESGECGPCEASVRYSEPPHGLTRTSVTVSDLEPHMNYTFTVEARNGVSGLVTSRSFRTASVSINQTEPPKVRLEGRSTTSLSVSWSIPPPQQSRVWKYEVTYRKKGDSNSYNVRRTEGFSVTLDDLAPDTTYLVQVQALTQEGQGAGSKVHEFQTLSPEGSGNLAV

Test [2] addresses T1, Human EphA2 (Ecto). Nature of the test: FP competition, tracer Compound 66.
In another test the target is T2, Mouse EphA2 (Ecto) (Mouse, UniProt Q03145 26-538).
T2 construct: extracellular domain; C-terminal polyHis; not shown: Fc fusion or C-terminal polyHis
In words: FP competition; tracer Reference Compound C. Summed up:
(§2)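 Unlabelled peptides competed against a fluorescently tagged peptide of known Kd. Peptides were diluted in direct-binding assay buffer (≤5% DMSO) and serially diluted 1 in 2. Read as in the direct binding assay, with gain set before the first read; mP values fit to a cubic equation to give Ki.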

Test [3] addresses T3, Human EphA2 (Ecto) (Human, UniProt P29317 24-537).
T3 construct: extracellular domain; in-house)
In words: FP competition; tracer Reference Compound C. Summed up:
as §2
T3 sequence (P29317 24-537): as above

In test [4] the target is Human EphA2 (Ecto) (Human) (UniProt P29317). Nature of the test: FP competition, tracer Compound 18.
For test [5], the target named is T1, Human EphA2 (Ecto). Nature of the test: FP competition, tracer Compound 18. The protocol:
as §1
The source holds these as a separate data set.

Starred links: 1 amine or outer side, 2 acyl side, 3 side chain; linkers in the order of their positions; H or OH if unused. Positions of bridges follow the written chain, without caps; N, C: chain ends. Non-standard residues stand in square brackets, D forms with d. Primed or numbered codes have the meaning given here. No end group written: not given here. TBMB′ = 1,3,5-tris(bromomethyl)benzene, 1,3,5-tris(methylene)benzene core, three thioethers to Cys; TATA = O=C(CC[*:1])N1CN(C(=O)CC[*:2])CN(C(=O)CC[*:3])C1; 1Nal = N[C@@H](Cc1cccc2ccccc12)C(=O)O; TBMB = c1c(C[*:1])cc(C[*:3])cc1C[*:2]; Gly(cPent) = N[C@H](C(=O)O)C1CCCC1; hArg = N=C(N)NCCCC[C@H](N)C(=O)O; Tle = CC(C)(C)[C@H](N)C(=O)O; Aib = CC(C)(N)C(=O)O; βAla = NCCC(=O)O; Sar = CNCC(=O)O

T2 sequence (Q03145 26-538): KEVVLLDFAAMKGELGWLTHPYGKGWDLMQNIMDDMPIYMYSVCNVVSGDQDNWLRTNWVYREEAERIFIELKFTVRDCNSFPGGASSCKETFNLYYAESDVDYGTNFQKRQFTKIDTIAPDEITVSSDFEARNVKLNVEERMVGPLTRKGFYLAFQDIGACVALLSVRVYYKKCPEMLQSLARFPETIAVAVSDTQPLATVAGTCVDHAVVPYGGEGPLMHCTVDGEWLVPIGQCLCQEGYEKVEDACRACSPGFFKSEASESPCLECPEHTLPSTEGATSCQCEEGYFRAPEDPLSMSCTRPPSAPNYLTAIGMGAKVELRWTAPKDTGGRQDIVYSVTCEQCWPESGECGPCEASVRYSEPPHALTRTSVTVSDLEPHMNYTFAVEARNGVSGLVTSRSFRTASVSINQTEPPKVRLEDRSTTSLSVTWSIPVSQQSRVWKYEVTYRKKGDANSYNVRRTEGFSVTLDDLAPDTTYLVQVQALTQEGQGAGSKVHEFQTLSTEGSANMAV
Sequence of Human EphA2 (Ecto) (Human) (P29317 24-537): as the sequence (P29317 24-537) above

As for [Sar][Sar]ACPWGPFWCPVNRAGC (linker 4-11-18 via TBMB) [Bicycle Compound 104], the values for the Ki with Human EphA2 (Ecto) [1] and with Human EphA2 (Ecto) [2] were 124 nM and 194 nM, respectively.

With [Sar][Sar]ACAWGPFWCPVNRPGC (linker 4-11-18 via TBMB) [Bicycle Compound 286], the affinity with Human EphA2 (Ecto) [2] corresponds to a Ki of 886 nM.

For [Sar][Sar]ACPWGPFWCPVNAPGC (linker 4-11-18 via TBMB) [Bicycle Compound 293], affinity in the test with Human EphA2 (Ecto) [2] was put at a Ki of 711 nM.

The molecule [Sar][Sar]ACPW[dA]PFWCPVNRPGC (linker 4-11-18 via TBMB) [Bicycle Compound 296] had a Ki with Human EphA2 (Ecto) [2] of 1000 nM.

B1: Bicycle Compound Number 76 (TATA scaffold), (β-Ala)-Sar10-ACPLVNPLCLHPGWTCL(D-His)G (peptide)
peptide: XXXXXXXXXXXACPLVNPLCLHPGWTCLHG
modifications: X1 = β-Ala; X at 2-11 = Sar; H29 = D-His; 3 Cys thioether-linked to TATA scaffold
On to B1, for which the Ki with Mouse EphA2 (Ecto) was 75.2 nM; in the test with Human EphA2 (Ecto) [3], 10 nM.

For the molecule [βAla][Sar][Sar][Sar][Sar][Sar][Sar][Sar][Sar][Sar][Sar]H[dD][Gly(cPent)]PCP[1Nal]G[Aib]F[1Nal]CP[Tle]NR[Aib]GC (linker 16-23-30 via TBMB) [Bicycle Compound 278], the Ki in test [4] was found to be 0.46 nM.

In the case of ARDCPLVNPLCLHPGWTCA (linker 4-11-18 via TATA) [Bicycle Compound Number 65 (TATA scaffold), ARDCPLVNPLCLHPGWTCA], the Ki was found to be 39.1 nM with Mouse EphA2 (Ecto) and 6.05 nM with Human EphA2 (Ecto) [3].

As to ADVHCPWAPFWCPVNRPGCA (linker 5-12-19 via TBMB) [Bicycle Compound 151], the Ki with Human EphA2 (Ecto) [5] and with Human EphA2 (Ecto) [1] was 394 nM throughout.

On to ADVHCPWGPFWCPV[dA]RPGCA (linker 5-12-19 via TBMB) [Bicycle Compound 155], for which the Ki with Human EphA2 (Ecto) [5] and with Human EphA2 (Ecto) [1] was 2 nM each time.

On to ADVHCPWGPFWCPVN[dA]PGCA (linker 5-12-19 via TBMB) [Bicycle Compound 156], for which the Ki in the test with Human EphA2 (Ecto) [5] and with Human EphA2 (Ecto) [1] was 14.9 nM throughout.

With ADVHCPWGAFWCPVNRPGCA (linker 5-12-19 via TBMB) [Bicycle Compound 152], the Ki in the test with Human EphA2 (Ecto) [5] and in the test with Human EphA2 (Ecto) [1] was 1.8 nM in each case.

As to Ac-[Sar][Sar]A[dD]VTCPWGPAWCPVNRPGC (linker 7-14-21 via TBMB′) [Bicycle Compound 173], the Ki with Human EphA2 (Ecto) [5] and with Human EphA2 (Ecto) [1] was 6.69 nM throughout.

For the molecule [Sar][Sar]ACPWGPFWCPVN[dA]PGC (linker 4-11-18 via TBMB) [Bicycle Compound 302], the Ki is greater than 1000 nM with Human EphA2 (Ecto) [1] and 1410 nM with Human EphA2 (Ecto) [2].

Molecule [βAla][Sar][Sar][Sar][Sar][Sar][Sar][Sar][Sar][Sar][Sar]H[dD][Gly(cPent)]TCP[1Nal]G[Aib]F[1Nal]CP[Tle]N[hArg]P[dD]C (linker 16-23-30 via TBMB) [Bicycle Compound 280] yielded a Ki in test [4] of 0.64 nM.

The molecule [Sar][Sar]ACPWGPFWCAVNRPGC (linker 4-11-18 via TBMB) [Bicycle Compound 291] displayed a Ki with Human EphA2 (Ecto) [1] greater than 1000 nM.

In test [4], [βAla][Sar][Sar][Sar][Sar][Sar][Sar][Sar][Sar][Sar][Sar]H[dD][Gly(cPent)]TCP[1Nal]G[Aib]F[1Nal]CP[Tle]NR[Aib]GC (linker 16-23-30 via TBMB) [Bicycle Compound 279] returned an inhibition constant Ki of 0.59 nM.

[βAla][Sar][Sar][Sar][Sar][Sar][Sar][Sar][Sar][Sar][Sar]H[dD]VPCPWGP[hArg]WCP[Tle]N[hArg]P[dD]C (linker 16-23-30 via TBMB) [Bicycle Compound 272] yielded a Ki in test [4] of 3.99 nM.

For the molecule [Sar][Sar]ACPWGPAWCPVNRPGC (linker 4-11-18 via TBMB) [Bicycle Compound 83], the Ki with Human EphA2 (Ecto) [1] was 199 nM; in the test with Human EphA2 (Ecto) [2], 288 nM.

B2: Bicycle Compound Number 78 (TATA scaffold), Ac-CPLVNPLCLHPGWTCL(D-His)G-Sar6-(D-K) (peptide)
peptide: CPLVNPLCLHPGWTCLHGXXXXXXK
modifications: N-terminal acetyl; H17 = D-His; X at 19-24 = Sar; K25 = D-Lys; 3 Cys thioether-linked to TATA scaffold
As to B2, the results for the inhibition constant Ki in the test with Mouse EphA2 (Ecto) and in the test with Human EphA2 (Ecto) [3] were 115 nM and 15.6 nM, respectively.

In test [4], [βAla][Sar][Sar][Sar][Sar][Sar][Sar][Sar][Sar][Sar][Sar]H[dD][Gly(cPent)]PC[Aib]WG[Aib]FWCP[Tle]NR[Aib][dD]C (linker 16-23-30 via TBMB) [Bicycle Compound 275] displayed a Ki of 15.9 nM.

Take [Sar][Sar]ACPWGPFWCPVNRPAC (linker 4-11-18 via TBMB) [Bicycle Compound 111]: the Ki with Human EphA2 (Ecto) [1] was found to be 108 nM; with Human EphA2 (Ecto) [2], 238 nM.

Take [βAla][Sar][Sar][Sar][Sar][Sar][Sar][Sar][Sar][Sar][Sar]H[dD]VPCP[1Nal]G[Aib]F[1Nal]CP[Tle]N[hArg][Aib][dD]C (linker 16-23-30 via TBMB) [Bicycle Compound 259]: the Ki in test [4] amounted to 0.91 nM. In other words, the sub-nanomolar range.

As for [Sar][Sar]ACPWGPFWCPVARPGC (linker 4-11-18 via TBMB) [Bicycle Compound 101], the Ki in the test with Human EphA2 (Ecto) [2] worked out at 265 nM.

[Sar][Sar]ACPWGPFWCPANRPGC (linker 4-11-18 via TBMB) [Bicycle Compound 292]: in the test with Human EphA2 (Ecto) [2], the affinity corresponds to a Ki of 954 nM. Compared with the last molecule, the Ki is about 3.6-fold higher.

In turn, [βAla][Sar][Sar][Sar][Sar][Sar][Sar][Sar][Sar][Sar][Sar]H[dD]VPCP[1Nal]G[Aib]FWCP[Tle]N[hArg]P[dD]C (linker 16-23-30 via TBMB) [Bicycle Compound 265] returned a Ki in test [4] of 1.55 nM.

On to [Sar][Sar]ACPWGPFWCPV[dA]RPGC (linker 4-11-18 via TBMB) [Bicycle Compound 102], for which the Ki was 317 nM with Human EphA2 (Ecto) [1] and 312 nM with Human EphA2 (Ecto) [2].

For [Sar][Sar]ACPWGPFWCPVNR[dA]GC (linker 4-11-18 via TBMB) [Bicycle Compound 105], the Ki with Human EphA2 (Ecto) [1] came out at 677 nM; with Human EphA2 (Ecto) [2], 471 nM.

The molecule [βAla][Sar][Sar][Sar][Sar][Sar][Sar][Sar][Sar][Sar][Sar]H[dD]VPCPWG[Aib]F[1Nal]CP[Tle]N[hArg]P[dD]C (linker 16-23-30 via TBMB) [Bicycle Compound 269] returned a Ki in test [4] of 1.11 nM.

B3: Bicycle Compound Number 68 (TATA scaffold), Ac-ARDCPLVNPLCLHPGWTCA-Sar6-(D-K) (peptide)
peptide: ARDCPLVNPLCLHPGWTCAXXXXXXK
modifications: N-terminal acetyl; X at 20-25 = Sar (sarcosine); K26 = D-Lys; 3 Cys thioether-linked to TATA scaffold
B3: the Ki with Mouse EphA2 (Ecto) is 166 nM; with Human EphA2 (Ecto) [3], 19.3 nM.

In the case of [Sar][Sar]ACPWGPFWCPVNRP[dA]C (linker 4-11-18 via TBMB) [Bicycle Compound 112], the Ki in the test with Human EphA2 (Ecto) [1] is 89 nM; in the test with Human EphA2 (Ecto) [2] it was 110 nM.

In the case of [Sar][Sar]ACPWG[dA]FWCPVNRPGC (linker 4-11-18 via TBMB) [Bicycle Compound 297], affinity in the test with Human EphA2 (Ecto) [2] was put at a Ki of 1500 nM. That is a single-digit micromolar value.

On to ACPLVNPLCLHPGWTCLHG (linker 2-9-16 via TATA) [Bicycle Compound Number 73 (TATA scaffold), ACPLVNPLCLHPGWTCLHG], for which affinity with Mouse EphA2 (Ecto) was put at a Ki of 7.27 nM.

[βAla][Sar][Sar][Sar][Sar][Sar][Sar][Sar][Sar][Sar][Sar]H[dD]VPCPWG[Aib]FWCP[Tle]N[hArg]P[dD]C (linker 16-23-30 via TBMB) [Bicycle Compound 271]: the Ki in test [4] came to 3.66 nM.

B4: Bicycle Compound Number 77 (BCY6019) (TATA scaffold), Ac-CPLVNPLCLHPGWTCLHG-Sar6-(D-K) (peptide)
peptide: CPLVNPLCLHPGWTCLHGXXXXXXK
modifications: N-terminal acetyl; X at 19-24 = Sar; K25 = D-Lys; 3 Cys thioether-linked to TATA scaffold
For B4, the Ki turned out to be 48.2 nM with Mouse EphA2 (Ecto) and 5.41 nM with Human EphA2 (Ecto) [3].

Take XXXXXXXXXXXARDCPLVNPLCLHPGWTC (N-terminal (β-Ala)-Sar10; 3 Cys thioether-linked to TATA scaffold) [Bicycle Compound Number 66 (BCY6099) (TATA scaffold), (β-Ala)-Sar10-ARDCPLVNPLCLHPGWTC]: the Ki stood at 57.6 nM with Mouse EphA2 (Ecto) and 4.94 nM with Human EphA2 (Ecto) [3].

As to Ac-[Sar][Sar]H[dD]VTCP[1Nal]G[Aib]F[1Nal]CP[Tle]NR[Aib]GC (linker 7-14-21 via TBMB) [Bicycle Compound 285], in test [4], the Ki came out at 1.21 nM.

Turning to [Sar][Sar]ACPWGAFWCPVNRPGC (linker 4-11-18 via TBMB) [Bicycle Compound 289], the Ki with Human EphA2 (Ecto) [1] is greater than 1000 nM; with Human EphA2 (Ecto) [2] it was 1100 nM.
